Experiments:
bat NLRP3 inflammasome = test: ASC speck formation in HEK293T cells reconstituted with bat NLRP3-mCitrine and bat ASC-mPlum (ImageStream); assay type: cell-based, Pteropus alecto; conditions: bat NLRP3-mCitrine, bat ASC-mPlum, ASC2-LSSmOrange overexpressed, FIG. 3B
Source text: (§1) Inflammasome activation assays.
(§2) ImageStream imaging flow cytometry. […] Nuclei were stained with DAPI.

AIM2 inflammasome = molecular target: T1, AIM2 inflammasome (Mus musculus, UniProt Q9EPB4); test: Inflammasome activation in LPS-primed BMDMs of bat ASC2/rtTA mice transfected with poly(dA:dT); assay type: cell-based; conditions: Dox, LPS 3 h, poly(dA:dT) transfection 4 h, FIG. 5D, 5E
T1 construct: endogenous in cells; host or cells: BMDMs of wild-type and bat ASC2/rtTA mice
T1 sequence (Q9EPB4 1-193): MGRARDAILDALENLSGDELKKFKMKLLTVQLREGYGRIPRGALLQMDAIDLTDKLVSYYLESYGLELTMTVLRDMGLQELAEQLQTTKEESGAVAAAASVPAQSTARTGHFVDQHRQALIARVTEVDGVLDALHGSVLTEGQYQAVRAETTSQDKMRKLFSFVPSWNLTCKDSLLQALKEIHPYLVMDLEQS
Source text: as §1

[1] = test system: peritonitis induced by ASC specks; test: Peritonitis induced by ASC specks in bat ASC2/rtTA mice; assay type: in vivo, mouse; conditions: bat ASC2/rtTA vs WT mice, oral Dox 7 days, ASC-mPlum specks i.p., 4 h
[2] = molecular target: T2, PYD-PYD interaction of human ASC (Homo sapiens, UniProt Q9ULZ3); test: NanoBiT inhibition assay of PYD-PYD interaction in HEK293T cells; assay type: cell-based; conditions: LgBiT/SmBiT-tagged PYD pairs 10 or 1 ng each, bat ASC2-LSSmOrange 10 ng, FIG. 19, 20
T2 construct: Human ASC PYRIN domain (PYD) was PCR amplified; linker […]; expressed in transfected cells; host or cells: HEK293T
Source text: Plasmids. Vectors were constructed by standard molecular cloning with pcDNA3.1 (+) as the backbone. Restriction enzyme sites used include NheI, AgeI (introduced), HindIII, BamHI, XhoI, and XbaI from 5′ to 3′ sequentially. […]. The N-terminal and C-terminal inserts of human ASC PYD or NanoBiT tags were flanked by AgeI/HindIII and BamHI/XhoI, respectively. The linker (GSSGGGGSGGGGSSG) flanked by HindIII/BamHI and C-terminal His10-tag flanked by XhoI/XbaI was oligo annealed. The gene fragments were introduced into the backbone by single, double, or triple insertions. The resulting vectors were sequenced using CMV-F and BGH-rev primers.
Cell Culture and Transfection. HEK293T cells were cultured in modified Eagle's medium (DMEM) with 10% fetal bovine serum in humidified 37° C. incubator with 5% CO2. Cells were seeded at a density of 3×10^5 cells/mL one day prior to transient transfection using Fugene 6 transfection reagent (Promega) according to the manufacturer's instructions. At 24 h post-transfection, cells are harvested for analyses.
NanoBiT and Inhibition Assay. White opaque plates were coated with 50 μL of 0.001% poly-L-lysine for at least 15 min at 37° C. and air-dried before seeding 3×10^5 cells/mL HEK239T cells. […] Luminescence is immediately quantified using BioTek Cytation 5 with a gain of 135 and an integration time of 1 s.

NLRP3 inflammasome [3] = molecular target: T3, NLRP3 inflammasome (Homo sapiens, UniProt Q9ULZ3); test: ASC speck and filament formation in HEK293T cells reconstituted with human NLRP3-mCitrine and human ASC-mPlum (ImageStream, confocal); assay type: cell-based; parameters: expressed in transfected cells; host or cells: HEK293T
Procedure: as §1, §2
Confocal imaging. […] At 48 h post-transfection, cells were fixed with 10% formalin for 15 min at room temperature. DAPI (1:2000 dilution) was used for nuclear staining. All samples were then mounted and examined using the Leica TCS SP8 confocal microscope.

NLRP3 inflammasome [4] = molecular target: T3, NLRP3 inflammasome; test: ASC speck formation by flow cytometry in reconstituted HEK293T cells (human NLRP3-mCitrine, human ASC-mPlum) with ASC2 of various species; assay type: cell-based; parameters: expressed in transfected cells; host or cells: HEK293T; conditions: 50 ng ASC2-LSSmOrange, 48 h, FIG. 27A
Procedure: Plasmids. ASC2 sequences of 16 non-primate non-bat species were gene synthesized (IDT) and cloned into pQCXIH-LSSmOrange vector (Clontech). All constructs were prepared with endotoxin-free plasmid kits (Omega Bio-tek).
Transfection. HEK293T cells were seeded at 3×10^5/mL in 96-well plate overnight. […] 48 h post-transfection, cells were harvested for flow cytometry analysis.

NLRP3 inflammasome [5] = molecular target: T4, NLRP3 inflammasome (Mus musculus, UniProt Q9EPB4); test: Inflammasome activation in LPS-primed BMDMs of WT or bat ASC2/rtTA mice stimulated with nigericin; conditions: Dox-induced bat ASC2, LPS 3 h
T4 sequence (Q9EPB4 1-193): T1 sequence (Q9EPB4 1-193)

[6] = molecular target: NLRP1 inflammasome (Homo sapiens); test: Talabostat-induced inflammasome activation in N/TERT-1 keratinocytes stably expressing ASC2-mCitrine; conditions: N/TERT-1, talabostat 0, 20, 200 μM, 24 h; FIG. 25B
Procedure: (§3) Immortalized N/TERT-1 keratinocyte were cultured in KSFM media (Gibco) supplemented with 30 g/ml BPE, 0.1 ng/ml rEGF, and 0.3 mM calcium chloride.
(§4) GP2-293 cells stably expressing gag and pol proteins, were co-transfected with pVSV-G envelope vector and mCitrine-only empty vector, bat or human ASC2-mCitirine pQCXIH vector for 48 h. Supernatants containing retroviruses were collected, centrifuged at 500 g for 10 min. N/TERT-1 cells were transduced with low MOI of retrovirus for 24 h to obtain a single viral copy per transduced cell. 72 h post-transduction, cells were selected by 20 μg/mL Hygromycin B antibiotic for at least 1 week to ensure stable expression. The stable cells were FACS-sorted for equal fluorescent intensity to ensure the same expression levels across cell lines.
(§5) Inflammasome activation assay. N/TERT-1 cells in KSFM without antibiotics were seeded at 1.8×10^5/mL into 96-well plates overnight. Cells were treated with various concentrations (0, 20, 200 μM) of talabostat dissolved in DMSO for 24 h. DMSO concentration is controlled at 0.5% for all treated wells.

NLRP1 inflammasome = NLRP1 inflammasome (Homo sapiens, UniProt Q9ULZ3); test: as above
NLRP1 inflammasome, sequence (Q9ULZ3 whole entry): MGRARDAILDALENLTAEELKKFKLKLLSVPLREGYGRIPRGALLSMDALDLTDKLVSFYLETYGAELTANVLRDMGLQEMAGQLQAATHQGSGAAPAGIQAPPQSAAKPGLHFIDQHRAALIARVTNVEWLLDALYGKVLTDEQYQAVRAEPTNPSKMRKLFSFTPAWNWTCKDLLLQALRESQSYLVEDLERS
Procedure: as §3, §4, §5

T3 sequence (Q9ULZ3 whole entry): as above
NLRP1 inflammasome (Homo sapiens), sequence (Q9ULZ3 whole entry): as above
T2 sequence (Q9ULZ3 1-91 limits assumed): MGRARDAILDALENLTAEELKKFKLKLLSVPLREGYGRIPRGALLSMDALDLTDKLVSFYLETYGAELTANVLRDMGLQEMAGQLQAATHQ

B1: bat ASC2: ASC2 (PYRIN-only protein) of the bat Pteropus alecto, SEQ ID NO:11; expressed from vectors or as Dox-inducible transgene (protein)
chain: MGKKRDAILEALENLTADELKKFKLKLGAAPLRQGFRNIPRGALGPLDAVDLTDKLVAFYCEDYGAELTAVVLRDIGMQEEAERLQGVA
ASC speck formation (bat NLRP3 inflammasome activation) (bat NLRP3 inflammasome): inhibited bat NLRP3 inflammasome | Activation of AIM2 inflammasome (LDH release, IL-1β) (AIM2 inflammasome): suppressed the activation | Recruitment of neutrophils (peritoneal lavage) ([1]; FIG. 8E): suppressed | IL-1β release (peritoneal lavage) ([1]; FIG. 8F): suppressed | PYD-PYD protein-protein interaction (NanoBiT luminescence signal) [2]: inhibit PYD-PYD protein-protein interaction | ASC2 filament formation / distribution (NLRP3 inflammasome [3]; HEK293T, ImageStream and confocal): formed fine and long filaments | Co-localization with human ASC (NLRP3 inflammasome [3]; HEK293T, imaging, FIG. 3A): co-localization between bat ASC2 and human ASC | ASC speck formation (human NLRP3 inflammasome activation) (NLRP3 inflammasome [3]; HEK293T, human NLRP3-mCitrine, human ASC-mPlum, 50 ng ASC2-LSSmOrange, 48 h post-transfection): suppressed the activation of human NLRP3 | Potency in inhibiting human NLRP3 inflammasome compared with human ASC2 (NLRP3 inflammasome [3]; expression normalized by gating equal signal intensity, FIG. 3C): significantly more potent | Effect on inflammasome activation (ASC speck formation) (NLRP3 inflammasome [4]): inhibitory effect | ASC speck formation (NLRP3 inflammasome [5]; nigericin 30 min, FIG. 6B, 6C): reduction of ASC speck formation | Pyroptotic cell death (LDH release) (NLRP3 inflammasome [5]; nigericin 1 h, FIG. 5B): reduction | IL-1β secretion (NLRP3 inflammasome [5]; nigericin 1 h, FIG. 5C): reduction | Cell death (LDH release) [6]: reduces cell death | IL-1β secretion (NLRP1 inflammasome; N/TERT-1, talabostat 0, 20, 200 μM, 24 h, FIG. 25C): reduces IL-1β secretion | Potency in inhibiting NLRP1 inflammasomes compared with human ASC2 (NLRP1 inflammasome; human skin cells (N/TERT-1)): significantly more potent
